Laboratory results: patent US20170029844A1

Molecular target: Spodoptera frugiperda ABCc2 transporter (Spodoptera frugiperda)
Assay: cell-based or functional assay

TIC105 toxin (wild type, unmodified)
relative fluorescence of SYTOX Green, Sf9 cells expressing the SfABCc2 transporter (relative fluorescence): 57200
